Results published in patent publication US20240294914A1, “COMPOSITIONS AND METHODS FOR TREATING HEPATITIS B VIRUS INFECTION” (priority 2021, published 2024).
Strand notation (5' to 3'): a small letter for the sugar, then the base; units joined by * are phosphorothioate-linked, units joined directly phosphodiester-linked; [ ] holds rarer units or linkages, { } end groups; capitals alone tell only the bases. m = 2'-O-methyl; r = 2'-OH (RNA)

Tests used:
Hepatitis B virus = assay: Antiviral efficacy in HBV-infected primary human hepatocytes (HBV-PHH): HBsAg, HBeAg, HBV DNA, 3.5 kb RNA, rebound; format: cell-based; details: HBV-PHH system, guide RNA + mRNA encoding base editor
Source text: (§1) Base editor systems comparing guide RNAs evaluated in Example 1 were subsequently tested for anti-viral and editing efficacy using the Hepatitis B virus-primary human hepatocyte (HBV-PHH) system. Cells were transfected with the guide RNAs and mRNAs encoding the base editor as described in Example 1. […] Guide RNAs ABE-133, MSPbeam94, and ABE-85 were associated with a 70-80% reduction of HBV DNA as compared to controls. The guide RNAs PolyA-NGC1 and PolyA-NGC2 were associated with high editing followed by 90% efficacy in reduction of HbeAg.
The HBV-PHH system for studying the Hepatitis B virus is described, for example, by Winer, et al., “Long-term hepatitis B infection in a scalable hepatic co-culture system,” Nat. Commun. 8:125 (2017) and by Zhou, et al. “Long-term maintenance of human fetal hepatocytes and prolonged susceptibility to HBV infection by co-culture with non-parenchymal cells,” J. Virol Methods, 195:185-93 (2014); and is provided commercially by ImQuest BioSciences (imquestbio.com/programs/virology/hbv/)).
(§2) The design of the experiments is described schematically in FIG. 14. Primary human hepatocyte (PHH) cells were infected with HBV at day 0. At days 4 and 11, the cells were transfected with mRNA encoding BE4 and with gRNA37 and gRNA40. Measurements of HBV DNA were taken over time, and measurements of HBsAg, HBeAG, HBV total DNA, 3.5 kb RNA, and cccDNA editing were taken at day 25. The experiments were carried out using a PHH co-culture system available from PhoenixBio. The PHH co-culture system maintained hepatocyte differentiation and metabolic activity for over 30 days. The HBV infection in the cells was persistent and a cccDNA level was maintained.
(§3) The design of the experiments is described schematically in FIG. 18. Primary human hepatocyte (PHH) cells were infected with HBV at day 0, at day 4 an 8-day. Treatment with lamivudine commenced (which included a 3-day pretreatment period within the 8-day total), and cells were transfected with mRNA encoding BE4 and the gRNAs gRNA37 and gRNA40 at days 7 and 14. HBV DNA levels were measured over time, and additional HBV markers were measured at day 21.
(§4) Primary hepatocytes (PHH) co-cultures infected with HBV were used to test antiviral efficacy of base editing systems. Primary hepatocyte co-culture (PHH) infected with HBV virus is a clinically relevant system for assessing anti-viral activity of base editing systems. The base editing reagents (mRNA encoding a base editor(s) and synthetic gRNA) were transfected via lipofection twice over the course of two weeks. The first transfection was performed about 3, 4, or 7 days after infection (days post infection (dpi)). Not being bound by theory, this 3-to-7-day period ensured that the cccDNA was completely formed at the time of the transfection. The second transfection was at about 7, 10, 11, or 14 days after infection. Extracellular parameters (e.g., HBsAg, HBeAg, and HBV DNA) were monitored over the course of the experiment (including the end of the experiment) and intracellular parameters (HBV DNA, viral RNA, and editing) were measured at the end of the experiment. Cells were lysed at the termination of the experiment (e.g., at 15, 17, 21, or 25 days).
(§5) Transfection details: RNA format, 800 ng total RNA per well in a 24 well plate (600 ng base editor-encoding mRNA+200 ng gRNA) transfected via lipofection (lipofectamin messengerMax, thermofisher Scientific) according to the vendor protocol.

HBV cccDNA = assay: Base editing of HBV cccDNA in primary human hepatocytes (HBV-PHH); format: cell-based, Hepatitis B virus; details: HBV-PHH system
Source text: as §1
Having identified gRNA37 and gRNA40 as effective gRNAs, the antiviral efficacy of a base editor system containing BE4, gRNA37 and gRNA40 (i.e., multiplexing gRNAs) was evaluated, FIGS. 8-10. It was determined that the base editor system multiplexed with the two gRNAs was associated with a reduction of HBV viral parameters in HepG2-NTCP cells, see FIG. 9. […] For the evaluation of editing of cccDNA, the cccDNA was enriched via Hirt extraction and ExoI/ExoIII nuclease treatment to remove rcDNA (relaxed circular DNA). Throughout the Examples provided herein, editing of cccDNA was evaluated using next generation sequencing completed using cccDNA enriched in this way.
as §2, §3, §4, §5

[1] = tested on: HBV genome in HEK293T cells transduced with a lentiviral vector; assay: Base editing efficiency in Hek293-lentiHBV system (PCR amplicons sequenced on MiSeq); format: cell-based, Hepatitis B virus; parameters: Editing Efficiency 2 (%): concentration or dose not given beside the values; details: for Average Editing Efficiency (%): average of 3, base editor Cas12b-ABE; for Average Editing Efficiency (%) / Editing Efficiency 1 (%) / Editing Efficiency 2 (%) / Editing Efficiency 3 (%): plasmid transfection, four days; for Editing Efficiency 1 (%): replicate 1, base editor Cas12b-ABE; for Editing Efficiency 2 (%): replicate 2, base editor Cas12b-ABE; for Editing Efficiency 3 (%): replicate 3, base editor Cas12b-ABE

| Molecule | HBV markers relative to the no treatment control (cccDNA editing and/or viral replication) (Hepatitis B virus) | cccDNA Editing in PHH A > G % (HBV cccDNA) | Average Editing Efficiency (%) [1] | Editing Efficiency 1 (%) [1] | Editing Efficiency 2 (%) [1] | Editing Efficiency 3 (%) [1] | other results |
| --- | --- | --- | --- | --- | --- | --- | --- |
| PolyA-NGC1: guide RNA SEQ ID NO: 5499 (nucleic acid, chemistry not fully specified) guide: GACCCTTATAAAGAATTTGGGTTTTAGAGCTAGAAATAGCAAGTTAAAATAAGGCTAGTCCGTTATCAACTTGAAAAAGTGGCACCGAGTCGGTGCTTTT | robust reduction in all HBV markers | 60.4% |  |  |  |  | efficacy in reduction of HbeAg (Hepatitis B virus): 90%; editing (HBV cccDNA): high editing |
| cas12b-152: guide RNA SEQ ID NO: 5523 (nucleic acid, listed as RNA, chemistry not fully specified) guide: GUUCUGUCUUUUGGUCAGGACAACCGUCUAGCUAUAAGUGCUGCAGGGUGUGAGAAACUCCUAUUGCUGGACGAUGUCUCUUACGAGGCAUUAGCACAGAGAAGUCCACCACGAGUC | robust reduction in all HBV markers |  |  |  |  |  | % Editing average ([1]; base editor Cas12b-ABE): 54% |
| cas12b-122b: guide RNA SEQ ID NO: 391 (nucleic acid, sugars from the 5' end m3 r114, linkages s3 o113 (s phosphorothioate, o phosphodiester), T or U not given here) guide: GTTCTGTCTTTTGGTCAGGACAACCGTCTAGCTATAAGTGCTGCAGGGTGTGAGAAACTCCTATTGCTGGACGATGTCTCTTACGAGGCATTAGCACCACGCACGCGCTGATGGCCC |  |  | 5.51% | 8.22% | 3.91% | 4.39% |  |
| ABE-133: guide RNA SEQ ID NO: 5516 (nucleic acid, chemistry not fully specified) guide: GAAGATGAGGCATAGCAGCAGTTTTAGAGCTAGAAATAGCAAGTTAAAATAAGGCTAGTCCGTTATCAACTTGAAAAAGTGGCACCGAGTCGGTGCTTTT | robust reduction in all HBV markers | 76.0% |  |  |  |  | % Editing average ([1]; base editor VRQR-ABE): 65% |
| cas12b-11: guide RNA SEQ ID NO: 381 (nucleic acid) guide: mG*mU*mU*rCrUrGrUrCrUrUrUrUrGrGrUrCrArGrGrArCrArArCrCrGrUrCrUrArGrCrUrArUrArArGrUrGrCrUrGrCrArGrGrGrUrGrUrGrArGrArArArCrUrCrCrUrArUrUrGrCrUrGrGrArCrGrArUrGrUrCrUrCrUrUrArCrGrArGrGrCrArUrUrArGrCrArCrCrArCrCrUrGrUrArUrUrCrCrCrArUrCrCrCrArU | robust reduction in all HBV markers |  | 58.03% | 44.34% | 60.28% | 69.47% |  |
| ABE-41: guide RNA SEQ ID NO: 5513 (nucleic acid, chemistry not fully specified) guide: AGAAGATGAGGCATAGCAGCGTTTTAGAGCTAGAAATAGCAAGTTAAAATAAGGCTAGTCCGTTATCAACTTGAAAAAGTGGCACCGAGTCGGTGCTTTT | robust reduction in all HBV markers | 56.0% |  |  |  |  | % Editing average ([1]; base editor Abe7.10): 58% |
| PolyA-NGC2: guide RNA SEQ ID NO: 5500 (nucleic acid, chemistry not fully specified) guide: TTTATAAGGGTCGATGTCCAGTTTTAGAGCTAGAAATAGCAAGTTAAAATAAGGCTAGTCCGTTATCAACTTGAAAAAGTGGCACCGAGTCGGTGCTTTT | robust reduction in all HBV markers | 62.9% |  |  |  |  | efficacy in reduction of HbeAg (Hepatitis B virus): 90%; editing (HBV cccDNA): high editing |
| cas12b-5: guide RNA SEQ ID NO: 380 (nucleic acid) guide: mG*mU*mU*rCrUrGrUrCrUrUrUrUrGrGrUrCrArGrGrArCrArArCrCrGrUrCrUrArGrCrUrArUrArArGrUrGrCrUrGrCrArGrGrGrUrGrUrGrArGrArArArCrUrCrCrUrArUrUrGrCrUrGrGrArCrGrArUrGrUrCrUrCrUrUrArCrGrArGrGrCrArUrUrArGrCrArCrUrCrGrCrUrGrGrArUrGrUrGrUrCrUrGrCrGrGrC |  |  | 0.54% | 0.12% | 0.36% | 1.14% |  |
| cas12b-124: guide RNA SEQ ID NO: 389 (nucleic acid) guide: mG*mU*mU*rCrUrGrUrCrUrUrUrUrGrGrUrCrArGrGrArCrArArCrCrGrUrCrUrArGrCrUrArUrArArGrUrGrCrUrGrCrArGrGrGrUrGrUrGrArGrArArArCrUrCrCrUrArUrUrGrCrUrGrGrArCrGrArUrGrUrCrUrCrUrUrArCrGrArGrGrCrArUrUrArGrCrArCrCrCrGrGrGrCrArArCrGrGrGrGrUrArArArGrGrU |  |  | 17.47% | 29.50% | 11.78% | 11.15% |  |
| cas12b-4: guide RNA SEQ ID NO: 379 (nucleic acid) guide: mG*mU*mU*rCrUrGrUrCrUrUrUrUrGrGrUrCrArGrGrArCrArArCrCrGrUrCrUrArGrCrUrArUrArArGrUrGrCrUrGrCrArGrGrGrUrGrUrGrArGrArArArCrUrCrCrUrArUrUrGrCrUrGrGrArCrGrArUrGrUrCrUrCrUrUrArCrGrArGrGrCrArUrUrArGrCrArCrArCrArArGrArArUrCrCrUrCrArCrArArUrArCrC |  |  | 20.00% | 14.70% | 26.37% | 18.93% |  |
| cas12b-127: guide RNA SEQ ID NO: 390 (nucleic acid) guide: mG*mU*mU*rCrUrGrUrCrUrUrUrUrGrGrUrCrArGrGrArCrArArCrCrGrUrCrUrArGrCrUrArUrArArGrUrGrCrUrGrCrArGrGrGrUrGrUrGrArGrArArArCrUrCrCrUrArUrUrGrCrUrGrGrArCrGrArUrGrUrCrUrCrUrUrArCrGrArGrGrCrArUrUrArGrCrArCrArCrArCrArGrArArArGrGrCrCrUrUrGrUrArArG |  |  | 42.25% | 50.16% | 37.40% | 39.21% |  |
